Source: patent US20130178394A1 (UNIVERSITY OF TOKYO, published 2013)
Bridge positions count the residues as written; N and C are the ends. Square brackets hold non-standard residues; d marks the D form. NMeF = CN[C@@H](Cc1ccccc1)C(=O)O; NMeS = CN[C@@H](CO)C(=O)O; Sar = CNCC(=O)O

Target: T1, biotinylated Avi-His-GB1-E6AP-HECT domain (human, UniProt P06654 228-282; Q05086 495-852, limits assumed, biotin on the Avi tag)
T1 construct: domain: Protein GB1 domain;domain: HECT domain; also called C terminal domain of ubiquitin ligase E6AP
Assay: SPR, BIACORE T100, Avi-His-GB1-E6AP-HECT on streptavidin chip, peptide as analyte
Protocol: The binding constant of MCP11 to E6AP-HECT was analyzed by a surface plasmon resonance using BIACORE T100.
A streptavidin sensor chip (SA chip certified) was used as a sensor chip, an Avi-His-GB1-E6AP-HECT was used as a ligand, and MCP11 was used as an analyte.

T1 sequence (P06654 228-282, tags or fused parts left off): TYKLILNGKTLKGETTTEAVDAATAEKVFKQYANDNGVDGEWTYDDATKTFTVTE

B1: MCP11, Cyclo(-Ac-DWCDVMeSGRMeFMeGYMeFPC)G-OH (chemically synthesized cyclic N-methyl peptide) (peptide)
peptide: {CH2CO}-[dW]CDV[NMeS]GR[NMeF][Sar]Y[NMeF]PCG-OH
modifications: thioether N-13
notes: The formula stands in the summary (h-0009)
B1 was tested. Which Kd did it give?
The Kd was 0.5 nM.
